T1: APBA2_1, Q99767
T1 sequence (Q99767 563-664, limits assumed, looked up): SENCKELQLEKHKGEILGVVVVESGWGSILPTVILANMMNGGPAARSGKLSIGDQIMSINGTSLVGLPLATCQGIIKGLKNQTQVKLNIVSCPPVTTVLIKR

T2: APBA3_1, O96018
T2 sequence (O96018 389-490, limits assumed, looked up): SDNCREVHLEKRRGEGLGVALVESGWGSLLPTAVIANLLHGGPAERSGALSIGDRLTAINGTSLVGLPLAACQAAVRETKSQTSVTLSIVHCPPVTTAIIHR

T3: ARHGAP21, Q5T5U3
T3 sequence (Q5T5U3 45-169, limits assumed, looked up): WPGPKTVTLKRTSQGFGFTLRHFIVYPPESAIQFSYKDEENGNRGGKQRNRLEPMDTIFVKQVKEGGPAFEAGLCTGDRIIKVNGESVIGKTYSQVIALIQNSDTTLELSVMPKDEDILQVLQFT

T4: DLG3_1, Q92796
T4 sequence (Q92796 125-227, limits assumed, looked up): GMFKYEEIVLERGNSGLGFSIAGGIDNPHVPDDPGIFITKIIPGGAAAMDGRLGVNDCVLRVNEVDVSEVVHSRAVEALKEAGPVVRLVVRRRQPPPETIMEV

T5: DLG3_2, Q92796
T5 sequence (Q92796 221-321, limits assumed, looked up): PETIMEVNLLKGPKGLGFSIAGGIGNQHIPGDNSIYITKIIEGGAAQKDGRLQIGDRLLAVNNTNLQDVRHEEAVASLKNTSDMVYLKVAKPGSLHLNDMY

T6: DVL3, Q92997
T6 sequence (Q92997 244-331, limits assumed, looked up): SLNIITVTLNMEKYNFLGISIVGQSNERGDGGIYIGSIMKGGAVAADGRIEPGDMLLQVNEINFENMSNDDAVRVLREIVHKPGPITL

T7: FRMPD1, Q5SYB0
T7 sequence (Q5SYB0 52-145, limits assumed, looked up): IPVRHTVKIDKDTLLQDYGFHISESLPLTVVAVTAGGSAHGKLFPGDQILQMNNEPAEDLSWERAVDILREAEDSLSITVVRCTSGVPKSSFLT

T8: GRIP1_5, Q9Y3R0
T8 sequence (Q9Y3R0 568-668, limits assumed, looked up): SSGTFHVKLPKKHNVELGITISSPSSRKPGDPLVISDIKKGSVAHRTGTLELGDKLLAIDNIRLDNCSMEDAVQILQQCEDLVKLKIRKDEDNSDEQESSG

T9: PDZD7_3, Q9H5P4
T9 sequence (Q9H5P4 857-944, limits assumed, looked up): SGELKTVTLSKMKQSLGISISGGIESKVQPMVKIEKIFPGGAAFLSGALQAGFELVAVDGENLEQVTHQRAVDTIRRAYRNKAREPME

T10: SHANK1, Q9Y566
T10 sequence (Q9Y566 658-767, limits assumed, looked up): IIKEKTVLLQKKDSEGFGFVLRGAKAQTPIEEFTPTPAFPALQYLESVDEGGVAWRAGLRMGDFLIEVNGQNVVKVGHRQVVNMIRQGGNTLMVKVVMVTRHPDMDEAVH

T11: SNTB1, Q13884
T11 sequence (Q13884 107-205, limits assumed, looked up): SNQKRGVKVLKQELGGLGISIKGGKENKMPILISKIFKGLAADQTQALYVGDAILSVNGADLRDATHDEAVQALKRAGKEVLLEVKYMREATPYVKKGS

T12: SYNJ2BP, P57105
T12 sequence (P57105 8-110, limits assumed, looked up): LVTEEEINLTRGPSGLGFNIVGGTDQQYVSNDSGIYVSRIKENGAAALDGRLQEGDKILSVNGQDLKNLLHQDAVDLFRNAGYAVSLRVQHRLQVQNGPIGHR

T13: TJP3_3, O95049
T13 sequence (O95049 375-456, limits assumed, looked up): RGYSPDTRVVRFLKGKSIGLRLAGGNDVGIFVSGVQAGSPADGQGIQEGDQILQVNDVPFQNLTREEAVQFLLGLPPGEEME


What follows are binders tested against T1, APBA2_1, Q99767 (assay: holdup assay). Settings: plain residues with an end cap or a label only (N-terminal biotin on a linker: ado-ado).
Design: key: below the threshold = too weak to quantify, mostly under pKd 3.1 to 4

| pKd | Binder |
| --- | --- |
| below the threshold | VYEVPVETKF [SLC26A3, P40879] |

These binders were tested against T2, APBA3_1, O96018 (assay: holdup assay). Settings: plain residues with an end cap or a label only (N-terminal biotin on a linker: ado-ado).
Design: key: below the threshold = too weak to quantify, mostly under pKd 3.1 to 4

| pKd | Binder |
| --- | --- |
| below the threshold | VYEVPVETKF [SLC26A3, P40879] |

Each binder was assayed against T3, ARHGAP21, Q5T5U3 (assay: holdup assay). Settings: plain residues with an end cap or a label only (N-terminal biotin on a linker: ado-ado).
Design: key: below the threshold = too weak to quantify, mostly under pKd 3.1 to 4

| pKd | Binder |
| --- | --- |
| below the threshold | VYEVPVETKF [SLC26A3, P40879] |

The binders below were run against DLG1_2, Q12959 (assay: holdup assay). Settings: plain residues with an end cap or a label only (N-terminal biotin on a linker: ado-ado).
Design: key: below the threshold = too weak to quantify, mostly under pKd 3.1 to 4

DLG1_2, Q12959, sequence (Q12959 314-412): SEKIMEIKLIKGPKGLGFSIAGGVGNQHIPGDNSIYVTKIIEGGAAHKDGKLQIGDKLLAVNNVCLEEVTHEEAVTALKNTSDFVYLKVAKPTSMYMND

| pKd | Binder |
| --- | --- |
| 3.59 | VYEVPVETKF [SLC26A3, P40879] |

Each binder was assayed against T4, DLG3_1, Q92796 (assay: holdup assay). Settings: plain residues with an end cap or a label only (N-terminal biotin on a linker: ado-ado).
Design: key: below the threshold = too weak to quantify, mostly under pKd 3.1 to 4

| pKd | Binder |
| --- | --- |
| below the threshold | VYEVPVETKF [SLC26A3, P40879] |

The binders below were run against T5, DLG3_2, Q92796 (assay: holdup assay). Settings: plain residues with an end cap or a label only (N-terminal biotin on a linker: ado-ado).
Design: key: below the threshold = too weak to quantify, mostly under pKd 3.1 to 4

| pKd | Binder |
| --- | --- |
| 4.13 | VYEVPVETKF [SLC26A3, P40879] |

Each binder was assayed against T6, DVL3, Q92997 (assay: holdup assay). Settings: plain residues with an end cap or a label only (N-terminal biotin on a linker: ado-ado).
Design: key: below the threshold = too weak to quantify, mostly under pKd 3.1 to 4

| pKd | Binder |
| --- | --- |
| below the threshold | VYEVPVETKF [SLC26A3, P40879] |

Each binder was assayed against T7, FRMPD1, Q5SYB0 (assay: holdup assay). Settings: plain residues with an end cap or a label only (N-terminal biotin on a linker: ado-ado).
Design: key: below the threshold = too weak to quantify, mostly under pKd 3.1 to 4

| pKd | Binder |
| --- | --- |
| below the threshold | VYEVPVETKF [SLC26A3, P40879] |

These binders were tested against GRID2IP_2, A4D2P6 (assay: holdup assay). Settings: plain residues with an end cap or a label only (N-terminal biotin on a linker: ado-ado).
Design: key: below the threshold = too weak to quantify, mostly under pKd 3.1 to 4

GRID2IP_2, A4D2P6, sequence (A4D2P6 272-370): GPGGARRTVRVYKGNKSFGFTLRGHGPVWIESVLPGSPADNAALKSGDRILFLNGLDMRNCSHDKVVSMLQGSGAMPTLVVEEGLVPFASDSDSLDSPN

| pKd | Binder |
| --- | --- |
| below the threshold | VYEVPVETKF [SLC26A3, P40879] |

Each binder was assayed against T8, GRIP1_5, Q9Y3R0 (assay: holdup assay). Settings: plain residues with an end cap or a label only (N-terminal biotin on a linker: ado-ado).
Design: key: below the threshold = too weak to quantify, mostly under pKd 3.1 to 4

| pKd | Binder |
| --- | --- |
| below the threshold | VYEVPVETKF [SLC26A3, P40879] |

Each binder was assayed against GRIP2_4, Q9C0E4 (assay: holdup assay). Settings: plain residues with an end cap or a label only (N-terminal biotin on a linker: ado-ado).
Design: key: below the threshold = too weak to quantify, mostly under pKd 3.1 to 4

GRIP2_4, Q9C0E4, sequence (Q9C0E4 446-548): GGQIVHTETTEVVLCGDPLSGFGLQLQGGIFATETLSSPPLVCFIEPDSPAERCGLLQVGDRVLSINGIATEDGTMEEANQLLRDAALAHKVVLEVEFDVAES

| pKd | Binder |
| --- | --- |
| below the threshold | VYEVPVETKF [SLC26A3, P40879] |

These binders were tested against HTRA1, Q92743 (assay: holdup assay). Settings: plain residues with an end cap or a label only (N-terminal biotin on a linker: ado-ado).
Design: key: below the threshold = too weak to quantify, mostly under pKd 3.1 to 4

HTRA1, Q92743, sequence (Q92743 360-477): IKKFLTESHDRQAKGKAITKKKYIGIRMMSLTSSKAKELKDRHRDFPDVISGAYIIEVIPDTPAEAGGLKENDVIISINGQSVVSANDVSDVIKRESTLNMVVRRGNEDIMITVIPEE

| pKd | Binder |
| --- | --- |
| below the threshold | VYEVPVETKF [SLC26A3, P40879] |

Each binder was assayed against Inadl_4, Q8NI35 (assay: holdup assay). Settings: plain residues with an end cap or a label only (N-terminal biotin on a linker: ado-ado).
Design: key: below the threshold = too weak to quantify, mostly under pKd 3.1 to 4

Inadl_4, Q8NI35, sequence (Q8NI35 547-651): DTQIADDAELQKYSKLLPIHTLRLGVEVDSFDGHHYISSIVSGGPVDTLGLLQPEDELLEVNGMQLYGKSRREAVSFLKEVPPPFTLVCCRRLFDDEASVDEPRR

| pKd | Binder |
| --- | --- |
| below the threshold | VYEVPVETKF [SLC26A3, P40879] |

These binders were tested against Inadl_6, Q8NI35 (assay: holdup assay). Settings: plain residues with an end cap or a label only (N-terminal biotin on a linker: ado-ado).
Design: key: below the threshold = too weak to quantify, mostly under pKd 3.1 to 4

Inadl_6, Q8NI35, sequence (Q8NI35 1058-1167): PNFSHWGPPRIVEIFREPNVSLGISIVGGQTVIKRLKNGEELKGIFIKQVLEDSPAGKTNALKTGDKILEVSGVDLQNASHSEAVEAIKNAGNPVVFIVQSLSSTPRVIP

| pKd | Binder |
| --- | --- |
| below the threshold | VYEVPVETKF [SLC26A3, P40879] |

The binders below were run against MAGI2_5, Q86UL8 (assay: holdup assay). Settings: plain residues with an end cap or a label only (N-terminal biotin on a linker: ado-ado).
Design: key: below the threshold = too weak to quantify, mostly under pKd 3.1 to 4

MAGI2_5, Q86UL8, sequence (Q86UL8 915-1017): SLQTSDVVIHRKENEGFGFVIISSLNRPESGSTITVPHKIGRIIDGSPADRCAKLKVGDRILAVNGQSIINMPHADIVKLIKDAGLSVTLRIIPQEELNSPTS

| pKd | Binder |
| --- | --- |
| 3.71 | VYEVPVETKF [SLC26A3, P40879] |

These binders were tested against MAGI2_6, Q86UL8 (assay: holdup assay). Settings: plain residues with an end cap or a label only (N-terminal biotin on a linker: ado-ado).
Design: key: below the threshold = too weak to quantify, mostly under pKd 3.1 to 4

MAGI2_6, Q86UL8, sequence (Q86UL8 1141-1229): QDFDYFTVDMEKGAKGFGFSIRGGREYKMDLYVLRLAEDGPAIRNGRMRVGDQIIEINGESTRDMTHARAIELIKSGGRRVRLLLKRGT

| pKd | Binder |
| --- | --- |
| 4 | VYEVPVETKF [SLC26A3, P40879] |

These binders were tested against MAST1, Q9Y2H9 (assay: holdup assay). Settings: plain residues with an end cap or a label only (N-terminal biotin on a linker: ado-ado).
Design: key: below the threshold = too weak to quantify, mostly under pKd 3.1 to 4

MAST1, Q9Y2H9, sequence (Q9Y2H9 962-1065): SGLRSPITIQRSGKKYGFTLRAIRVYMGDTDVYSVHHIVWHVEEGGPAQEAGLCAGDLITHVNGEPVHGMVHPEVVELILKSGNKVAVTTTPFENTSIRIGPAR

| pKd | Binder |
| --- | --- |
| 5.07 | VYEVPVETKF [SLC26A3, P40879] |

Each binder was assayed against PDLIM1, O00151 (assay: holdup assay). Settings: plain residues with an end cap or a label only (N-terminal biotin on a linker: ado-ado).
Design: key: below the threshold = too weak to quantify, mostly under pKd 3.1 to 4

PDLIM1, O00151, sequence (O00151 1-87): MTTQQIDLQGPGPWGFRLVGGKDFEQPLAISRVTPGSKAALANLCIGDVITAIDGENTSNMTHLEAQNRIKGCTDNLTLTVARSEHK

| pKd | Binder |
| --- | --- |
| below the threshold | VYEVPVETKF [SLC26A3, P40879] |

Each binder was assayed against T9, PDZD7_3, Q9H5P4 (assay: holdup assay). Settings: plain residues with an end cap or a label only (N-terminal biotin on a linker: ado-ado).
Design: key: below the threshold = too weak to quantify, mostly under pKd 3.1 to 4

| pKd | Binder |
| --- | --- |
| below the threshold | VYEVPVETKF [SLC26A3, P40879] |

What follows are binders tested against SCRIB_2, Q14160 (assay: holdup assay). Settings: plain residues with an end cap or a label only (N-terminal biotin on a linker: ado-ado).
Design: key: below the threshold = too weak to quantify, mostly under pKd 3.1 to 4

SCRIB_2, Q14160, sequence (Q14160 857-960): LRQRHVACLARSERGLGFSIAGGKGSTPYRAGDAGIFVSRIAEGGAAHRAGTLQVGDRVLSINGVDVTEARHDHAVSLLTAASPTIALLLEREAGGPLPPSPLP

| pKd | Binder |
| --- | --- |
| 3.67 | VYEVPVETKF [SLC26A3, P40879] |

What follows are binders tested against T10, SHANK1, Q9Y566 (assay: holdup assay). Settings: plain residues with an end cap or a label only (N-terminal biotin on a linker: ado-ado).
Design: key: below the threshold = too weak to quantify, mostly under pKd 3.1 to 4

| pKd | Binder |
| --- | --- |
| 4.63 | VYEVPVETKF [SLC26A3, P40879] |

Each binder was assayed against T11, SNTB1, Q13884 (assay: holdup assay). Settings: plain residues with an end cap or a label only (N-terminal biotin on a linker: ado-ado).
Design: key: below the threshold = too weak to quantify, mostly under pKd 3.1 to 4

| pKd | Binder |
| --- | --- |
| below the threshold | VYEVPVETKF [SLC26A3, P40879] |

Each binder was assayed against T12, SYNJ2BP, P57105 (assay: holdup assay). Settings: plain residues with an end cap or a label only (N-terminal biotin on a linker: ado-ado).
Design: key: below the threshold = too weak to quantify, mostly under pKd 3.1 to 4

| pKd | Binder |
| --- | --- |
| 3.57 | VYEVPVETKF [SLC26A3, P40879] |

The binders below were run against T13, TJP3_3, O95049 (assay: holdup assay). Settings: plain residues with an end cap or a label only (N-terminal biotin on a linker: ado-ado).
Design: key: below the threshold = too weak to quantify, mostly under pKd 3.1 to 4

| pKd | Binder |
| --- | --- |
| below the threshold | VYEVPVETKF [SLC26A3, P40879] |

Source: article PMC9482650, “Quantitative fragmentomics allow affinity mapping of interactomes” (Nature Communications, 2022)
